{"source": "patent US7157616B2", "about": "“Method of selecting non-diabetogenic milk or milk products and milk or milk products so selected” (priority 1994, dated 2007)", "molecules": {"B1": {"name": "β-casein A1 variant: bovine β-casein A1 variant (SEQ ID NO: 2); casein made from milk of β-casein A1A1 phenotype cows (protein)", "chain": "RELEELNVPGEIVESLSSSEESITRIDKKIEKFQSEEQQQTEDELQDKIHPFAQTQSLVYPFPGPIHNSLPQNIPPLTQTPVVVPPFLQPEVMGVSKVKEAMAPKHKEMPFPKYPVQPFTESQSLTLTDVENLHLPPLLLQSWMHQPHQPLPPTVMFPPQSVLSLSQSKVLPVPEKAVPYPQRDMPIQAFLLYQQPVLGPVRGPFPIIV"}, "B2": {"name": "β-casein A2 variant: bovine β-casein A2 variant; casein made from milk of β-casein A2A2 phenotype cows (protein)", "chain": "B1 chain with H67P"}, "B3": {"name": "bovine β-casein A1 hexapeptide Pro-63 to Asn-68 (Pro-Gly-Pro-Ile-His-Asn) (peptide)", "peptide": "PGPIHN", "modifications": "also: tritiated"}, "B4": {"name": "bovine β-casein A2 hexapeptide Pro-63 to Asn-68 (peptide)", "peptide": "PGPIPN", "modifications": "also: tritiated"}}, "key": {"human macrophage": {"tested_on": "human macrophage", "conditions": "cited from earlier work"}, "normal human macrophage": {"tested_on": "normal human macrophage", "assay": "Binding of tritiated hexapeptides to normal PB monocyte/macrophages", "conditions": "for CPM bound: +Glucose, NaN3, Captopril, Benzylsuccinate, Elastatinal", "source_text": "(§1) Using the method described by M'Hamiel Jaziri et al (1992) the human macrophage binding of the bovine peptides Pro-63 to Asn-68 (from the β-casein A1 and A2 variant sequences) were studied and compared with the binding of the peptide Val-54 Tyr-59 from human β-peptide to each of a normal human macrophage and a prediabetic human macrophage."}, "[1]": {"tested_on": "prediabetic human macrophage", "assay": "Binding of tritiated hexapeptides to prediabetic PB monocyte/macrophages", "conditions": "for CPM bound: +Glucose, NaN3, Captopril, Benzylsuccinate, Elastatinal", "source_text": "as §1"}, "murine macrophages": {"tested_on": "murine macrophages", "conditions": "cited from earlier work"}, "[2]": {"biological_target": "binding site on normal human PB monocyte/macrophages (human)", "assay": "binding of tritiated hexapeptide to PB monocyte/macrophages; reference bovine A1 peptide"}, "[3]": {"biological_target": "binding site on prediabetic human PB monocyte/macrophages (human)", "assay": "binding of tritiated hexapeptide to PB monocyte/macrophages; reference bovine A1 peptide"}, "[4]": {"biological_target": "binding site on normal human PB monocyte/macrophages (human)", "assay": "binding of tritiated hexapeptide to PB monocyte/macrophages"}, "[5]": {"biological_target": "binding site on prediabetic human PB monocyte/macrophages (human)", "assay": "binding of tritiated hexapeptide to PB monocyte/macrophages"}, "NOD mice": {"tested_on": "NOD mice", "assay": "Diabetes incidence in NOD mice fed β-casein A1/A2 variants, whey or Bos indicus casein as 10% additions to Prosobee", "assay_type": "in vivo, mouse", "conditions": "for Number of Animals Developing Diabetes by 250 days / Percentage of animals developing diabetes by 250 days: 10% addition to Prosobee infant formula from weaning", "source_text": "Similar groups of mice were fed a diet of the soy infant formula Prosobee™ and 10% W/W of: […]\nd) Bos indicus casein, or\ne) a 50/50 mixture of β-casein A1 variant/A2 variant.\nThe β-casein A1 variant precipitated diabetes in […] cases, the A2 variants in no cases and the A1/A2 mixture in 4 of 20 cases. The result mid-way between the […] results is consistent with there being no interaction between A1 and A2.\nLactic casein was manufactured in the New Zealand Dairy Research Institute Pilot Plant from the β-casein A1A1 and A2A2 phenotype bulk milks using methods essentially identical to those used in a standard New Zealand commercial lactic casein manufacturing dairy factory (see Muller, 1986). These caseins together with other constituents were then used in the feeding trials as described in Examples 2 and 3."}}, "note": "Substitutions are numbered along the chain they refer to. Like-named read-outs stand apart in the source and are kept apart here. Marks after values point to notes of the source that are not given here. Ends that are not written are not given here.", "data": [{"molecule": "Human: tritiated hexapeptide Val-54 to Tyr-59 from human β-casein (VEPIPY; also: tritiated) [reference compound]", "values": [{"measurement": "binding site on the human macrophage", "setting": "human macrophage", "value": "specific binding site"}, {"measurement": "Ratio */** (Human / Bovine A1 CPM)", "setting": "normal human macrophage; NORMAL PBM (N = 3)", "value": 1.2}, {"measurement": "CPM bound", "setting": "normal human macrophage; NORMAL PBM (N = 3)", "value": "2750* CPM"}, {"measurement": "binding to normal human macrophages", "setting": "normal human macrophage", "value": "bind specifically"}, {"measurement": "Ratio */** (Human / Bovine A1 CPM)", "setting": "[1]; PREDIABETIC PBM (N = 3)", "value": 0.31}, {"measurement": "CPM bound", "setting": "[1]; PREDIABETIC PBM (N = 3)", "value": "1400* CPM"}, {"measurement": "binding to prediabetic macrophages", "setting": "[1]", "value": "bind specifically"}]}, {"molecule": "Pro-Gly-Pro-Ile-His-Asn (PGPIHN; also: tritium label) [Bovine A1]", "values": [{"measurement": "CPM bound", "setting": "normal human macrophage; NORMAL PBM (N = 3)", "value": "2220** CPM"}, {"measurement": "binding to normal human macrophages", "setting": "normal human macrophage", "value": "bind specifically"}, {"measurement": "phagocytic activity of murine macrophages", "setting": "murine macrophages", "value": "stimulate the phagocytic activity"}, {"measurement": "CPM bound", "setting": "[1]; PREDIABETIC PBM (N = 3)", "value": "4500** CPM"}, {"measurement": "binding to prediabetic macrophages", "setting": "[1]", "value": "bind specifically"}]}, {"molecule": "Bovine A2: tritiated bovine hexapeptide Pro-63 to Asn-68 from the β-casein A2 variant sequence (proline at position 67) (PGPIPN; also: tritiated)", "values": [{"measurement": "CPM bound", "setting": "normal human macrophage; NORMAL PBM (N = 3)", "value": 2900, "unit": "CPM"}, {"measurement": "CPM bound", "setting": "[1]; PREDIABETIC PBM (N = 3)", "value": 2750, "unit": "CPM"}]}, {"molecule": "peptide Val-54 to Tyr-59 from human β-casein (from UniProt P05814 69-74)", "values": [{"measurement": "Ratio */** (human CPM to bovine A1 CPM)", "setting": "[2]", "value": 1.2}, {"measurement": "Ratio */** (human CPM to bovine A1 CPM)", "setting": "[3]", "value": 0.31}, {"measurement": "CPM", "setting": "[4]", "value": 2750, "unit": "CPM"}, {"measurement": "CPM", "setting": "[5]", "value": 1400, "unit": "CPM"}]}, {"molecule": "B1", "values": [{"measurement": "diabetogenic activity (words)", "setting": "NOD mice", "value": "diabetogenic"}, {"measurement": "Number of Animals Developing Diabetes by 250 days", "setting": "NOD mice", "value": 9}, {"measurement": "Percentage of animals developing diabetes by 250 days", "setting": "NOD mice", "value": 45, "unit": "%"}, {"measurement": "diabetogenic activity (words)", "setting": "NOD mice; listed as A1 variant", "value": "does have diabetogenic activity"}]}, {"molecule": "B2", "values": [{"measurement": "diabetogenic activity (words)", "setting": "NOD mice", "value": "is not"}, {"measurement": "Number of Animals Developing Diabetes by 250 days", "setting": "NOD mice", "value": 0}, {"measurement": "Percentage of animals developing diabetes by 250 days", "setting": "NOD mice", "value": 0, "unit": "%"}, {"measurement": "Number of Animals Developing Diabetes by 250 days", "setting": "NOD mice; listed as A2 variants", "value": "no cases"}, {"measurement": "diabetogenic activity (words)", "setting": "NOD mice; listed as A2 variant", "value": "do not show diabetogenic activity"}]}, {"molecule": "B3", "values": [{"measurement": "CPM", "setting": "[4]", "value": 2220, "unit": "CPM"}, {"measurement": "CPM", "setting": "[5]", "value": 4500, "unit": "CPM"}]}, {"molecule": "B4", "values": [{"measurement": "CPM", "setting": "[4]", "value": 2900, "unit": "CPM"}, {"measurement": "CPM", "setting": "[5]", "value": 2750, "unit": "CPM"}]}]}
